Measured values as given in patent EP4778588A2, “ENZYMATICALLY CLEAVABLE LINKER AND LIGAND-ERIBULIN CONJUGATE CONTAINING SAME” (priority 2022, dated 2024).

System: KATO III cell line (human gastric cancer cells)
Test: Cell viability test (same method as for Calu-6) in KATO III cells
Assay type: cell-based
Details: average DAR of 2 to 3, read-out: EC/IC50 values for cell viability
Procedure: Human Calu-6 cells (manufacturer: Procell, product code: CL-327, human lung cancer cells) were resuscitated and seeded into a 96-well culture plate. The culture medium used was DMEM/F12 (manufacturer: Hyclone, product code: SH30023.01), supplemented with 10% FBS (manufacturer: Gibco, product code: 10099141). Each well contained 2,500 cells in 150 µl of medium. The plate was incubated at 37°C in a 5% CO2 incubator. Approximately 20 hours later, 50 µl of medium containing different antibody-drug conjugates were added to each well, setting the final drug concentrations at 0 to 100 nM across 12 dilution gradients (initial concentration: 100 nM; subsequent 5-fold serial dilutions across 10 gradients; last gradient containing no drug, and each sample was tested in duplicate wells). […] After a 2-minute reaction, fluorescence intensity was measured using a Tecan Spark instrument, following the reagent kit's recommended protocol. […] EC/IC50 values were calculated using four-parameter fitting.
Further, following the above examples, antibody-drug conjugates (ADCs) of Trastuzumab and Bemarituzumab conjugated with the linker-toxin MC-VAGGFG-PAB-Eribulin were prepared for validation. […] Activity was measured using the SK-BR-3 cell line (human breast cancer cells) and KATO III cell line (human gastric cancer cells).

B1: Bemarituzumab MC-VAGGFG-PAB-Eribulin: Bemarituzumab conjugated with the linker-toxin MC-VAGGFG-PAB-Eribulin (conjugate, chains of the INN, looked up)
VH: QVQLVQSGAEVKKPGSSVKVSCKASGYIFTTYNVHWVRQAPGQGLEWIGSIYPDNGDTSYNQNFKGRATITADKSTSTAYMELSSLRSEDTAVYYCARGDFAYWGQGTLVTVSS
VL: DIQMTQSPSSLSASVGDRVTITCKASQGVSNDVAWYQQKPGKAPKLLIYSASYRYTGVPSRFSGSGSGTDFTFTISSLQPEDIATYYCQQHSTTPYTFGQGTKLEIK
modifications: MC-VAGGFG-PAB-Eribulin
IC50: 97 pM
